Source: publication PMC10577170 (2023)

T1: CSPG4 (chondroitin sulfate proteoglycan 4) peptide on HLA-C*07:01 (human)
T1 peptide: HIIFPHGSL

T2: CSPG4 (chondroitin sulfate proteoglycan 4) peptide on HLA-C*07:02 (human)
T2 peptide: HIIFPHGSL

T3: CSPG4 (chondroitin sulfate proteoglycan 4) peptide on HLA-C*07:02 (human)
T3 peptide: PHIIFPHGSL

B1: 2Cα-11Cβ cTCR (TCR)
alpha TRAV35*02 TRAJ34*01 CDR3: CAGSYNTDKLIF
beta TRBV28*01 TRBJ2-2*01 CDR3: CASSYDWGGELFF
B2: 11C/73 TCR (TCR)
alpha TRAV12-2*02 TRAJ45*01 CDR3: CAVNAAGGGADGLTF
beta TRBV28*01 TRBJ2-2*01 CDR3: CASSYDWGGELFF
B3: 11Cα-2Cβ cTCR (TCR)
alpha TRAV12-2*02 TRAJ45*01 CDR3: CAVNAAGGGADGLTF
beta TRBV3-1*01 TRBJ2-1*01 CDR3: CASSQGWTRNEQFF
B4: 2C/165 TCR (TCR)
alpha TRAV35*02 TRAJ34*01 CDR3: CAGSYNTDKLIF
beta TRBV3-1*01 TRBJ2-1*01 CDR3: CASSQGWTRNEQFF

Columns and labels:
[1] = molecular target: T1, CSPG4 (chondroitin sulfate proteoglycan …); assay: killing
[2] = molecular target: T2, CSPG4 (chondroitin sulfate proteoglycan …); assay: cytokine release
[3] = molecular target: T3, CSPG4 (chondroitin sulfate proteoglycan …); assay: cytokine release

Row | Binder | binding result [1] | binding result [2] | binding result [3]
1 | B1 | recognises |  | 
2 | B2 | recognises | no recognition | no recognition
3 | B3 | no recognition |  | 
4 | B4 | recognises | no recognition | no recognition
